Data on 41 sequences can be found in the nanobody polyreactivity screen of Harvey et al. (2022).

The nature of the data set: yeast display, Sf9 membrane polyspecificity reagent, FACS + sequencing; frameworks hold sequencing errors. A digest of the protocol: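 Galactose-induced (36–48 hours) yeast carrying a synthetic nanobody display library were exposed to 10% biotinylated, detergent-solubilized Sf9 membrane reagent at 4 °C for 1 hour. FACS followed streptavidin microbead enrichment, using low and high (top ~1%) gates for expression (anti-HA) and reagent binding (streptavidin). Colony PCR, MiSeq 2 × 250 sequencing and CDR-length filtering followed. Labels for polyreactivity reflect the gate of origin.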
Turning to “QVQLVESGGGLVQAGGSLRLSCAASGRTFRYNALGWYRQAPGTERELVAAISRGTITNYAASVKGRFTISRDNAKNPVYFQLTSLKPEDTAVYYCNAGWGVVIRRYPTYHYWGQGTQVTVSS”, the “polyreactivity (PSR sort gate)” value is “high polyreactivity”.

“QVQLVESGGGLVQAGGSLRLSCAASGRTFRYNAMGWYRQAPGKERELVAAISSGDRTNYADSVKGRFTISRDNAKNTVYLQMNSLKPEDTAVYYCAAPTDSYYEFDYWGQGTQVTVSS”: the “polyreactivity (PSR sort gate)” value was “low polyreactivity”.

For the sequence “QVQLVESGGGLVQAGGSLRLSCAASGRTFRYNAMGWYRQAPGKERELVAAITQSGGSTYYADSVKGRFTISRDNAKNTVYLQMNSLKPEDTAVYYCAKVRERINYDYWGQGTQVTVSS”, the “polyreactivity (PSR sort gate)” value is “low polyreactivity”.

On to “QVQLVESGGGLVQAGGSLRLSCAASGRTFRYNAMGWYRQAPGKERELVASITSGGSTNYADSVKGRFTISRDNAKNTVYLQMNSLKPEDTAVYYCAADERRPYWLHSIGSGRPFDYWGQGTQVTVSS”, for which the “polyreactivity (PSR sort gate)” value is “low polyreactivity”.

Regarding “QVQLVESGGGLVQAGGSLRLSCAASGRTFRYNRMGWYRQAPGKERELVAAITGGGSTYYADSVKGRFTISRDNAKNTVYLQMNSLKPEDTPVYYCAKRRWYRYDYWGQGTQVTVSS”, the “polyreactivity (PSR sort gate)” value is reported as “high polyreactivity”.

Consider “QVQLVESGGGLVQAGGSLRLSCAASGRTFRYNTMGWYRQAPGKERELVARINWSGGSTYYADSVKGRFTISRDNAKNTVYLQMNSLKPEDTAVYYCAAVPILVYRWFQSYTGDYDYWGQGTQVTVSS”, for which the “polyreactivity (PSR sort gate)” value is listed as “low polyreactivity”.

On to “QVQLVESGGGLVQAGGSLRLSCAASGRTFRYNTMGWYRQAPGTERELVATITGSGGSTYYADSVKGRFTISRDNAKNTVYLQMNSLKPEDTAVYYCNALFRLRAYAEMDYWGQGTQVTVSS”, for which the “polyreactivity (PSR sort gate)” value is recorded as “high polyreactivity”.

On to “QVQLVESGGGLVQAGGSLRLSCAASGRTFRYYAMGWYRPAPGKERELVATITGSGGSTYYADSVKGRFTISRDNAKNTVYLQMNSLKPEDTAVYDCNARKVRYPYRWYVYWGQGTQVTVSS”, for which the “polyreactivity (PSR sort gate)” value is “high polyreactivity”.

For “QVQLVESGGGLVQAGGSLRLSCAASGRTFRYYAMGWYRQAPAKERELVAAINWNGGRTYYADSVKGRFTISRDNAKNTVYLQMNSLKPEDTAVYYCAAYHYRSPVTGDYWGQGTQVTVSS”, the “polyreactivity (PSR sort gate)” value is “high polyreactivity”.

On to “QVQLVESGGGLVQAGGSLRLSCAASGRTFRYYAMGWYRQAPGKERELVAAISWNGANTYYADSVKGRFTISRDNAKNTVYLQMNSLKPEDTAVYYCAATYYRWKGYDYWGQGTQVTVSS”, for which the “polyreactivity (PSR sort gate)” value is “high polyreactivity”.

With “QVQLVESGGGLVQAGGSLRLSCAASGRTFRYYAMGWYRQAPGKERELVAAITSNGGSTYYADSVKGRFTISRDNAKNTVYLQMNSLKPEDTAVYYCNALASRGKYGFDYWGQGTQVTVSS”, the “polyreactivity (PSR sort gate)” value is reported as “high polyreactivity”.

Turning to “QVQLVESGGGLVQAGGSLRLSCAASGRTFRYYAMGWYRQAPGKERELVAAITSSGDSTYYADSVKGRFTISRDNAKNTVYLQMNSLKPEDTAVYYCAAGQPLFYDAEYGYWGQGTQVNVSS”, the “polyreactivity (PSR sort gate)” value is given as “low polyreactivity”.

For “QVQLVESGGGLVQAGGSLRLSCAASGRTFRYYAMGWYRQAPGKERELVAAITSVGGTYYADSVKGRFTISRDNAKNTVYLQMNSLKPEDTAVYYCAVTSYKYRKYDYWGQGTQVTVSS”, the “polyreactivity (PSR sort gate)” value is “high polyreactivity”.

For the sequence “QVQLVESGGGLVQAGGSLRLSCAASGRTFRYYAMGWYRQAPGKESEFVARISSSGSSTYSADSVKGRFTISRDNAKNTVYLQMNSLKPEDTAVYYCAKTVLPYGGSNGLKWYYYWGQGTQVTVSS”, the “polyreactivity (PSR sort gate)” value was “high polyreactivity”.

For “QVQLVESGGGLVQAGGSLRLSCAASGRTFRYYAMGWYRQAPGTERELVATITGSGGSTYYADSVKGRFTISRDNAKNSVYLQMNSLKPEDTAVYYCNARKVRYPYRWYDYWGQGTQVTVSS”, the “polyreactivity (PSR sort gate)” value is listed as “high polyreactivity”.

As for “QVQLVESGGGLVQAGGSLRLSCAASGRTFRYYAMGWYRQPPGKERELVATITGSGGSTYYADSVKGRFTISRDNAKNTVYVQMNSLKPEDTAVYDCNARKVRYPYRWYDYWGQGTQVTVSS”, the “polyreactivity (PSR sort gate)” value is “high polyreactivity”.

For “QVQLVESGGGLVQAGGSLRLSCAASGRTFRYYAMGWYRQTPGKERELVATISKSGGSTYYADSVKGRFTISRDNAKNTVYLQMNSLKPEDTAVYYCATSKSYSAFDYWGQGTQVTVSS”, the “polyreactivity (PSR sort gate)” value is given as “high polyreactivity”.

“QVQLVESGGGLVQAGGSLRLSCAASGRTFRYYVMGWYRQAPGKERELVAAITYSGGGTYYADSVKGRFTISRDNAKNTVYLQMNSLKPEDTAVYYCAAARTYQYDKYYYWGQGTQVTVSS”: the “polyreactivity (PSR sort gate)” value is on record as “high polyreactivity”.

Take “QVQLVESGGGLVQAGGSLRLSCAASGRTFSAYAMGWYRQAPGKERELVAAISRSGGRTYYADSVKGRFTISRDNAKNTVYLEMNSLKPEDTAVYYCNARNLRDNQCTYDYWGQGTQVTVSS”: the “polyreactivity (PSR sort gate)” value is listed as “high polyreactivity”.

As to “QVQLVESGGGLVQAGGSLRLSCAASGRTFSAYAMGWYRQAPGKERELVAAITLSVGSTYYADSVKGRFTISRDNAKNTVYLQMNSLKPEDTAVYYCNKYKKGEGGITIVRFDYWGQGTQVTVSS”, the “polyreactivity (PSR sort gate)” value is recorded as “low polyreactivity”.

On to “QVQLVESGGGLVQAGGSLRLSCAASGRTFSAYAMGWYRQAPGKERELVARITSVDSTNYADSVKGRFTISRDNAKNTVYLQMNSLKPEDTAVYYCNATFGYPCVDYDDYWGQGTQGTVSS”, for which the “polyreactivity (PSR sort gate)” value is listed as “low polyreactivity”.

For the sequence “QVQLVESGGGLVQAGGSLRLSCAASGRTFSAYARGWYRQAPGKERELVAAISRRGGSTYYADSVKGRFTISRDNAKNTVYLQMNSLKPEDTAVYYCAADVYKQYGYYYWGQGTLVTVSS”, the “polyreactivity (PSR sort gate)” value is “high polyreactivity”.

For the sequence “QVQLVESGGGLVQAGGSLRLSCAASGRTFSAYTMGWYRQAPGKERELVAAISRRGGSTYYADSVKGRFTISRDNAKNTVYLQMNSLKPEDTAVYYCATKSQYDYDYWGHGTQVTVSS”, the “polyreactivity (PSR sort gate)” value is “high polyreactivity”.

Take “QVQLVESGGGLVQAGGSLRLSCAASGRTFSEYAMGWYRQAPGKERELVAAITRSGGGTYYADSVKGRFTISRDNAKNTVYLQMNSLKPEDTAVYYCATQSFSPYDYTDEYWGQGTQVTVSS”: the “polyreactivity (PSR sort gate)” value is given as “high polyreactivity”.

For the sequence “QVQLVESGGGLVQAGGSLRLSCAASGRTFSFYAMGWYRPAPGKERELVAAISSGTRTYYADSVKGRFTISRDNAKNTFYLQMNSLKPEDTAVYYCAARPKWTASWYYYWGQGTQVTVSS”, the “polyreactivity (PSR sort gate)” value is listed as “high polyreactivity”.

For the sequence “QVQLVESGGGLVQAGGSLRLSCAASGRTFSGYAMGWYRQAPGKEREFVAVITYSGGSTYYADSVKGRFTMSRVNAKNTVYLQMNSLKPEDTAVYYCNADYVIFYQLVDFDYWGQGTQVTVSS”, the “polyreactivity (PSR sort gate)” value was “low polyreactivity”.

As to “QVQLVESGGGLVQAGGSLRLSCAASGRTFSINAMGWYSQAPGKERELVAAISYTGGSTYYADSVKGRFTISRDNAKNTVYLQMNSLKPEDTAVYYCAASSSRTYYGRYYYWGQGTQVTVSS”, the “polyreactivity (PSR sort gate)” value is given as “high polyreactivity”.

As to “QVQLVESGGGLVQAGGSLRLSCAASGRTFSIYAMGWYRQAPGKERELVAAISNGGRTKYADSVKGRFTISRDNAKNTVYLQMNSLKPEDTAVYYCAASRPRPPSSRRMDYWGQGTQVTVSS”, the “polyreactivity (PSR sort gate)” value is on record as “high polyreactivity”.

For “QVQLVESGGGLVQAGGSLRLSCAASGRTFSIYTMGWYRQAPGKERELVASIRRSSGSTYYADSVKGRFTISRDNAKNTVYLQMNSLKPEDTAVYYCAADRIRLDSRKFDYWGQGTQVTVSS”, the “polyreactivity (PSR sort gate)” value is on record as “low polyreactivity”.

On to “QVQLVESGGGLVQAGGSLRLSCAASGRTFSKYVMGWYRQAPGKERELVATITSGGSTYYADSVKGRFTISRDNAKNTVYLQMNSLKPEDTAVYYCAARIWYYNYWGQGTQVTVSS”, for which the “polyreactivity (PSR sort gate)” value is “high polyreactivity”.

Consider “QVQLVESGGGLVQAGGSLRLSCAASGRTFSLNAMGWYRPAPGKEREFVAAISSTGGSTYYADSVKGRFTISRDNAKNTVYLQMNSLKPEDTAVYYCAKRSVYRTAQGRYSVAYDYWGQGTQVTVSS”, for which the “polyreactivity (PSR sort gate)” value was “high polyreactivity”.

With “QVQLVESGGGLVQAGGSLRLSCAASGRTFSNYAMGGYRQAPGKERELVAAISERGGSTYYADSVKGRFTISRDNPKNSVFVQLNSLKPEDTAVYDCNALFRLRAYAEMDYWGQGTQVTVSS”, the “polyreactivity (PSR sort gate)” value is “high polyreactivity”.

As for “QVQLVESGGGLVQAGGSLRLSCAASGRTFSNYAMGWYRQAPGKERELVAAIRSGVRTYYADSVKGRFTISRDNAKNTVYLQMNSLKPEDTAVYYCAVATGLLYKSHGYWGQGTQVTVSS”, the “polyreactivity (PSR sort gate)” value was “low polyreactivity”.

Consider “QVQLVESGGGLVQAGGSLRLSCAASGRTFSNYVMGWSRQAPGKERELVAAITYSGGSTYYADSVKGRFTISRDNAKYTVYLQMNSLKPEDTAVYYCARRWGGSGYYYWGQGTQVTVSS”, for which the “polyreactivity (PSR sort gate)” value is “high polyreactivity”.

On to “QVQLVESGGGLVQAGGSLRLSCAASGRTFSPYAMGWYRQAPGKERELVAAITSRGASTYYADSVKGRFTISRDNAKNTVYLQMNSLKPEDTAVYYWNSGRTYRRLGDYWGQGTQVTVSS”, for which the “polyreactivity (PSR sort gate)” value is “high polyreactivity”.

Turning to “QVQLVESGGGLVQAGGSLRLSCAASGRTFSQYAMGWYRQAPGKERELVAAISWSGDSTYYADSVKGRFTISRDNAKNTVYLQMNSLKPEDTAVYDCAADRRVETPRYDYWGQGTQVTVSS”, the “polyreactivity (PSR sort gate)” value is recorded as “low polyreactivity”.

“QVQLVESGGGLVQAGGSLRLSCAASGRTFSRNAKGWYRQAPGKERELVAAISWSGGSTYYADSVKGRFTISRDNAKNTVYLQMNSLKPEDTAVYYCAKVLGRTYNYWGQGTQVTVSS”: the “polyreactivity (PSR sort gate)” value is recorded as “high polyreactivity”.

For the sequence “QVQLVESGGGLVQAGGSLRLSCAASGRTFSRNAMAWYRQAPGKERELVAAISRRGVSTYYADSVKGRFTISRDNAKNTVYLQMNSLKPDDTAVFYCNTRGTYRYDYWGQGTQVTVSS”, the “polyreactivity (PSR sort gate)” value is on record as “low polyreactivity”.

Consider “QVQLVESGGGLVQAGGSLRLSCAASGRTFSRNAMGWYRQAPGKERELVAAITKGGGSTYYADSVKGRFTISRDNAKNTVYLQMNSLKPEDTAVYYCAAYKPSTRRYDYWGQGTQVTVSS”, for which the “polyreactivity (PSR sort gate)” value is on record as “high polyreactivity”.

Take “QVQLVESGGGLVQAGGSLRLSCAASGRTFSRNAMGWYRQAPGKERELVASISRSGASTYYADSVKGRFTISRDNAKNTVYLQMNSLKPEDTAVYYCNADVYSTYYNYNYWVQGTQVTVSS”: the “polyreactivity (PSR sort gate)” value is recorded as “high polyreactivity”.

Consider “QVQLVESGGGLVQAGGSLRLSCAASGRTFSRNAMGWYRQAPGNERELLAASSWSGGRTYYADSVKGRFTISRDNAKNTFYLQMNSLKPEDTAVYYCAAGGGTGGSRYDSWGQGTQVTVSS”, for which the “polyreactivity (PSR sort gate)” value was “high polyreactivity”.
